Measurements: publication PMC8593154

What was measured:
[1] = target: γB2ΔICD-EC5-VenusΔN3C9-P3 (mouse) (UniProt Q91XX7); experiment: FRET or BRET; acceptor photobleaching at cell adhesion sites of co-cultured HEK293T cells individually expressing donor (mTQ2) and acceptor (Venus) constructs; trans interaction across cells
[2] = target: γB2ΔICD-EC5-Venus (mouse) (UniProt Q91XX7); experiment: as above

In the case of “γB2ΔICD-EC1-G4S-mTQ2ΔC6 (from UniProt Q91XX7 1-738) (receptor)”, the FRET efficiency [1] is reported as 27.4%.

For “γB2ΔICD-EC1-mTQ2 (from UniProt Q91XX7 1-738) (receptor)”, the FRET efficiency [2] was 14.1%.
